From the supplement of paper PMC10567573

B1: INTS4 (parent)
chain: AKQIMEETYKMEFMYSGVENKQVV

Variants of: B1
Test: protein stability index of a GFP-peptide fusion (GPS, HEK-293T) (PSI 1-6); higher = more stable
Conditions: c terminus: a fixed tail appended
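Note: lentivirally expressed fusions sorted by FACS into six bins by GFP to DsRed ratio, PSI derived from sequencing read proportions per bin multiplied by bin number.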

Protein stability index of substitutions, site by site:
K2: C 2.23 | Q 2.27
E7: A 2.04 | I 2.35 | H 1.7 | T 1.96 | G 2.1 | R 2.55 | S 1.67 | D 1.68 | L 1.38 | M 1.5 | P 2.93 | Y 2.21 | Q 1.86 | W 3.34 | C 1.71 | K 2.55 | N 1.9 | V 2.97
I4: G 2.89 | L 1.35 | A 2.39 | F 3 | E 3.46 | T 2.9 | Y 2.48 | S 2.99 | H 2.04 | P 3.39 | K 2.38 | C 2.6 | R 2.07 | M 1.9 | V 2.42 | D 2.92 | N 2.58 | Q 2.3
Q3: R 1.7 | T 1.85 | K 1.96 | W 2.53 | E 2.3 | N 1.68 | P 2.85 | F 1.97 | L 1.75 | Y 1.84 | S 2.35 | H 1.69 | M 1.51 | I 2.17 | A 2.15 | C 1.42 | D 2.26 | G 3.49
A1: H 2.72 | L 2.44 | P 3.02 | M 1.34 | Y 2.1 | S 2.82 | K 2.68 | D 3.46 | G 2.39 | F 1.04 | V 2.07 | T 2.8 | W 2.44 | N 2.1 | Q 2.52 | C 1.86 | I 1.42 | R 2.69 | E 3.37
E6: W 2.12 | S 2.47 | Y 1.61 | A 2.25 | H 2.21 | R 2.48 | D 3.17 | M 3.07 | T 1.76 | Q 1.77 | F 2.01 | V 2.54 | N 2.12 | G 3.01 | P 2.16 | C 1.73 | K 1.89 | I 2.61
T8: R 1.84 | N 2.42 | F 1.64 | A 1.63 | H 2.54 | Y 1.92 | W 2.71 | G 1.41 | C 1.52 | Q 2.19 | E 2.69 | K 2.85 | V 1.89 | I 1.28 | S 2.39 | L 2.67 | P 3.46
K10: E 3.15 | P 3.79 | L 1.96 | D 3.55 | F 1.13 | S 1.81 | C 1.6 | H 1.25 | G 2.48 | W 1.96 | M 1.99 | I 1.92 | Y 2.14 | R 3.13 | Q 1.67 | V 2.64 | T 1.43 | N 1.32 | A 1.91
M5: Q 3.25 | T 2.98 | G 3.53 | C 2.87 | V 2.2 | K 3.05 | I 1.08 | N 3.75 | A 3.14 | F 1.79 | W 2.11 | P 2.54 | E 3.67 | D 3.99 | S 3.08 | Y 2.71 | H 2.76 | L 4.9 | R 2.87
Y9: N 4.24 | C 2.31 | L 2.67 | M 3.43 | T 3.87 | R 3.84 | D 3.83 | A 3.9 | E 4.34 | P 3.78 | F 2.26 | I 2.02 | H 3.61 | G 3.84 | Q 4.41 | V 3.1 | S 3.9 | W 2.18 | K 3.57
